The values below come from publication doi:10.1101/2021.12.04.471219 (bioRxiv, 2021).

Sequences and labels used below:
T1: LNX2 PDZ2 domain (residues 334-426) (human, UniProt Q8N448 334-426)
T1 sequence: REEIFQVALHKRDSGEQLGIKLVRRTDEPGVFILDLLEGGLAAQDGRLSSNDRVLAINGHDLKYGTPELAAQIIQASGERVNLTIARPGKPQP

T2: MPP5 PDZ domain (residues 238-336) (human, UniProt Q8N3R9 238-336)
T2 sequence: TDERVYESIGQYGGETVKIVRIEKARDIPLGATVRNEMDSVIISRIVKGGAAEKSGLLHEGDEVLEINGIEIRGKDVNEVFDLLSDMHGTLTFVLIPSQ

B1: ZO-1 PDZ2 domain (residues 184-264) (domain or fragment)
chain: PTKVTLVKSRKNEEYGLRLASHIFVKEISQDSLAARDGNIQEGDVVLKINGTVTENMSLTDAKTLIERSKGKLKMVVQRDE

Series [1] has as its target MLLT4 PDZ domain (residues 961-1056) (human) (UniProt P55196). Briefly: MST.
The series “AUC” deals with the molecule itself. Put plainly: AUC.
The target of series [2] is B1. Put plainly: MST.
Series [3] deals with PARD3 PDZ3 domain (residues 582-685) (human, UniProt Q8TEW0 582-685). Put plainly: MST.
Chain of PARD3 PDZ3 domain (residues 582-685) (Q8TEW0 582-685): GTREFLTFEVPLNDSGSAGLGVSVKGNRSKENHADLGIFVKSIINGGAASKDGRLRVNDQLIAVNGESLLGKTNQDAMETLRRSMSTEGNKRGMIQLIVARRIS
The target of series [4] is T1, LNX2 PDZ2 domain (residues 334-426). Put plainly: MST.
The target of series [5] is T2, MPP5 PDZ domain (residues 238-336). Put plainly: MST.

Values joined by “and” are separate entries in the source; they are usually repeats but may differ in a detail not shown here. Equal values may be shown once.

The Kd is the concentration at which binding is half-saturated. The low end stands for a tighter complex, the high end for a looser complex. For “C-terminal SARS-CoV-2-E PBM peptide (12-mer, original strain)”, the Kd in series [1] was 569 µM.

The term stoichiometry N denotes the number of molecules, sites or subunits per partner or assembly. For B1, the “stoichiometry N” value in “AUC” is 2 and ~4.

As to NLNSSRVPDLLV [C-terminal SARS-CoV-2-E PBM peptide (12-mer, original strain)], the Kd is 15 µM in series [2], 341 µM in series [3], 289 µM in series [4] and 30 µM in series [5].
